Target: T1, ErbB4 PY3 motif (Homo sapiens, UniProt Q15303)
T1 chain: KPGTVLPPPPYRHRNTVV

With DSEDELPPGWEERTTKDGWVYYANHTEEKTQWEHPKTGKR [WWOX WW1] the Kd was ~100 µM.
